{"source": "patent US20050002904A1", "about": "(published 2005)", "key": {"soluble α2β1 integrin": {"target": "soluble α2β1 integrin (UniProt P17301 30-1132; P05556 21-728)", "sequence (P17301 30-1132, chain 1 of 2)": "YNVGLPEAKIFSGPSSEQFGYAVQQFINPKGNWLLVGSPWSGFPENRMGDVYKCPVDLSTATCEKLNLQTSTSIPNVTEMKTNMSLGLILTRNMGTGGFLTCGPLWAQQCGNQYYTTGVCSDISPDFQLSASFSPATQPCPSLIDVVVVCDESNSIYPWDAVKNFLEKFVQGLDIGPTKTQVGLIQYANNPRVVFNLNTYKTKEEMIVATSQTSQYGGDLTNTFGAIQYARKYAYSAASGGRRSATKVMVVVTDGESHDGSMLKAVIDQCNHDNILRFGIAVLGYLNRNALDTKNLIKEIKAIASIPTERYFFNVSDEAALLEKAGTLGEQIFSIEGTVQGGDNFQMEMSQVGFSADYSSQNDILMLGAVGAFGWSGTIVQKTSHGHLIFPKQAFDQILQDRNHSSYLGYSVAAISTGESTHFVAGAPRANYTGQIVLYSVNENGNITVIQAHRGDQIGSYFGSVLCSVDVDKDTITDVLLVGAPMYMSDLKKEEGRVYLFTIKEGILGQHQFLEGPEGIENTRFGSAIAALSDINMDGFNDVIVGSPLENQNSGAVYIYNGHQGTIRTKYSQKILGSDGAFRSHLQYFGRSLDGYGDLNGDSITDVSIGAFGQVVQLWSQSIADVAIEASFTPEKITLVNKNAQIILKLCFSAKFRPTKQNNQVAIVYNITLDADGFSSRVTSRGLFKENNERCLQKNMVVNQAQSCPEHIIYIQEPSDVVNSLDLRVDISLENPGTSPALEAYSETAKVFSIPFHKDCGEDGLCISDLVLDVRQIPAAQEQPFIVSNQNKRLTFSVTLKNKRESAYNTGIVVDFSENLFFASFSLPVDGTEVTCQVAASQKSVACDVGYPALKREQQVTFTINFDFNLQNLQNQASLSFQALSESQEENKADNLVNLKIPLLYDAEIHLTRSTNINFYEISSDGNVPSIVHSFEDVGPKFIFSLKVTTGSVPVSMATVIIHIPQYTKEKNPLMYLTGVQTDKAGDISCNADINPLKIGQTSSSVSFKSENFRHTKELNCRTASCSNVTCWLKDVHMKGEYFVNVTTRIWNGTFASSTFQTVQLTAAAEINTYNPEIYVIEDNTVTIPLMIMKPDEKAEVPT", "sequence (P05556 21-728, chain 2 of 2)": "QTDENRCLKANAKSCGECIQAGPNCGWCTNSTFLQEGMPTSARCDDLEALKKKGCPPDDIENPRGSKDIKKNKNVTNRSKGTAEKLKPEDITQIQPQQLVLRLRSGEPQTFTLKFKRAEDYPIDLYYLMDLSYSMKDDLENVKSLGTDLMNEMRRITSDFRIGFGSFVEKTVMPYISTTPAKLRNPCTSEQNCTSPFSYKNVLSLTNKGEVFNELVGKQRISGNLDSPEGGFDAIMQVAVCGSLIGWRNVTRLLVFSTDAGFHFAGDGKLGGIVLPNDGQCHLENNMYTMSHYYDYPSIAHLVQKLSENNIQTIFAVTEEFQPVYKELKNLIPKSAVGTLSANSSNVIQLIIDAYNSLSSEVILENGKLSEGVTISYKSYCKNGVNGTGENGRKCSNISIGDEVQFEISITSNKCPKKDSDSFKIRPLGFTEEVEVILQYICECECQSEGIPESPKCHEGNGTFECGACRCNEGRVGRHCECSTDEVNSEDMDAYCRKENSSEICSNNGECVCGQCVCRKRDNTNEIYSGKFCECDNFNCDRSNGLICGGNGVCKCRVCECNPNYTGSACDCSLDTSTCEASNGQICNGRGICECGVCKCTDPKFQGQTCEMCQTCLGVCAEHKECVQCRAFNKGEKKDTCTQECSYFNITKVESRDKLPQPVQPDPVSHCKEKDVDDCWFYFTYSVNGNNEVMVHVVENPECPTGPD", "test": "solid-phase ligand binding ELISA, integrin immobilized", "procedure": "(§1) Briefly, soluble α2β1, α5β1, αvβv3 and αvβ5 integrins (1 μg/ml in a solution containing 20 mM Tris pH 7.4, 150 mM NaCl, 1 mM CaCl₂, 1 mM MgCl₂ and 1 mM MnCl₂) were immobilized onto 96-well microtiter plates at 4° C. Wells were washed and blocked with 0.5% BSA. […] Plates were then washed again and the ABTS substrate (Bio-Rad) was added. All washing steps were carried out using PBS. Absorbances were read at 405 nm, and non-specific binding values were adjusted against BSA."}, "soluble αvβ5 integrin": {"target": "soluble αvβ5 integrin (UniProt P06756 31-992; P18084 24-719)", "sequence (P06756 31-992, chain 1 of 2)": "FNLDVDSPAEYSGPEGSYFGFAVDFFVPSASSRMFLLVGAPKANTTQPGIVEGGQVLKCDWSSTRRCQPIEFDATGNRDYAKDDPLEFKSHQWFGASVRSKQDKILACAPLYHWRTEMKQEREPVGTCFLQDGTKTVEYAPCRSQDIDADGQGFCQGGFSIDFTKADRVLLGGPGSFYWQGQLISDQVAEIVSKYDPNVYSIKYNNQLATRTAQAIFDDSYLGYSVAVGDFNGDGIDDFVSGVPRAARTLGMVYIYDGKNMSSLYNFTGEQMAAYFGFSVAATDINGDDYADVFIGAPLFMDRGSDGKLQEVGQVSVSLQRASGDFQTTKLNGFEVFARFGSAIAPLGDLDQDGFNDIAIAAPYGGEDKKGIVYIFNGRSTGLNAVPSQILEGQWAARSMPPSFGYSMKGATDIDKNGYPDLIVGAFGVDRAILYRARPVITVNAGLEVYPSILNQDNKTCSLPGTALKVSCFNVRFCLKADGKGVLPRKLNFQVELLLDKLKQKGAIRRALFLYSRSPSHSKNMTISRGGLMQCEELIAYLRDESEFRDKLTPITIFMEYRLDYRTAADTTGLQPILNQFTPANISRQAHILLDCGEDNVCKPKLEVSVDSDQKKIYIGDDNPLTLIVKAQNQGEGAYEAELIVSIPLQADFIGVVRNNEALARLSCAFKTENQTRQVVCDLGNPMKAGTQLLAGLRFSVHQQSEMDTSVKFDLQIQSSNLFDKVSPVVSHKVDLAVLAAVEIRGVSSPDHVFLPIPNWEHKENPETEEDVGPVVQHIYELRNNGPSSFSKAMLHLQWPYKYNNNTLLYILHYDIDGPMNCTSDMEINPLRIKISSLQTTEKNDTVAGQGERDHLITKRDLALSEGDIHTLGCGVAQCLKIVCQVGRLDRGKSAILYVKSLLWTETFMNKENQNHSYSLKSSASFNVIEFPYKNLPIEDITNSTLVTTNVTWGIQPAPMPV", "sequence (P18084 24-719, chain 2 of 2)": "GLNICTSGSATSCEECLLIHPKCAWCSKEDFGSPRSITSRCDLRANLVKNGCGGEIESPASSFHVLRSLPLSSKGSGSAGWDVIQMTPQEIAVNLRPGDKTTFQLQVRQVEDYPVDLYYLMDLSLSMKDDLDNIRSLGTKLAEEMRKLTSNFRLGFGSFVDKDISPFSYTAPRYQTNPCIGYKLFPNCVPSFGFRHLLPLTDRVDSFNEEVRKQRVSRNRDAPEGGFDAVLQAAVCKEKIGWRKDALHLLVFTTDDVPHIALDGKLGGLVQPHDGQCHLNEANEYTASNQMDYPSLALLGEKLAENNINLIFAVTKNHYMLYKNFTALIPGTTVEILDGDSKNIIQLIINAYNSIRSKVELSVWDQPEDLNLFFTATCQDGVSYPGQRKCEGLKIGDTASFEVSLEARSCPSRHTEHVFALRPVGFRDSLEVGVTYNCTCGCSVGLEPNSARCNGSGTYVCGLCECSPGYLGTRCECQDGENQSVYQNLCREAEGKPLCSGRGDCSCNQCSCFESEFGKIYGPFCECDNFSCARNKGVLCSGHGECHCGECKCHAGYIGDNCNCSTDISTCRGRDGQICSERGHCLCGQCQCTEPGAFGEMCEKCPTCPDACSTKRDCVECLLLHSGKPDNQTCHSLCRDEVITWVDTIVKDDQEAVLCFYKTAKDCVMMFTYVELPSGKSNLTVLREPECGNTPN", "test": "solid-phase ligand binding ELISA, integrin immobilized", "procedure": "as §1"}, "[1]": {"target": "T1, α5β1 integrin of endothelial cells (human, UniProt P08648 42-1049; P05556 21-798)", "T1 construct": "whole, on cells; On cells in the adhesion assays", "test": "GST pull-down from 35S-labeled endothelial cell lysate, re-immunoprecipitation with P1D6", "source_text": "(§2) Lysates were pre-adsorbed twice with GST-Sepharose beads to remove proteins that interact with GST-Sepharose beads non-specifically. […] The beads were then extensively washed. […] The samples were equally divided into three tubes and diluted with cold immunoprecipitation dilution buffer to adjust the concentration of SDS to <0.1%. The samples were then immediately subjected to immunoprecipitation with indicated antibodies (FIG. 10H)."}, "[2]": {"target": "T2, αvβ3 integrin of endothelial cells (human, UniProt P06756 31-1048; P05106 27-788)", "T2 construct": "whole, on cells; On cells in the adhesion assays", "test": "GST pull-down from 35S-labeled endothelial cell lysate, re-immunoprecipitation with LM609", "source_text": "as §2"}, "p120catenin [3]": {"target": "T3, p120catenin (human, UniProt O60716 1-968, limits assumed)", "T3 sequence (looked up)": "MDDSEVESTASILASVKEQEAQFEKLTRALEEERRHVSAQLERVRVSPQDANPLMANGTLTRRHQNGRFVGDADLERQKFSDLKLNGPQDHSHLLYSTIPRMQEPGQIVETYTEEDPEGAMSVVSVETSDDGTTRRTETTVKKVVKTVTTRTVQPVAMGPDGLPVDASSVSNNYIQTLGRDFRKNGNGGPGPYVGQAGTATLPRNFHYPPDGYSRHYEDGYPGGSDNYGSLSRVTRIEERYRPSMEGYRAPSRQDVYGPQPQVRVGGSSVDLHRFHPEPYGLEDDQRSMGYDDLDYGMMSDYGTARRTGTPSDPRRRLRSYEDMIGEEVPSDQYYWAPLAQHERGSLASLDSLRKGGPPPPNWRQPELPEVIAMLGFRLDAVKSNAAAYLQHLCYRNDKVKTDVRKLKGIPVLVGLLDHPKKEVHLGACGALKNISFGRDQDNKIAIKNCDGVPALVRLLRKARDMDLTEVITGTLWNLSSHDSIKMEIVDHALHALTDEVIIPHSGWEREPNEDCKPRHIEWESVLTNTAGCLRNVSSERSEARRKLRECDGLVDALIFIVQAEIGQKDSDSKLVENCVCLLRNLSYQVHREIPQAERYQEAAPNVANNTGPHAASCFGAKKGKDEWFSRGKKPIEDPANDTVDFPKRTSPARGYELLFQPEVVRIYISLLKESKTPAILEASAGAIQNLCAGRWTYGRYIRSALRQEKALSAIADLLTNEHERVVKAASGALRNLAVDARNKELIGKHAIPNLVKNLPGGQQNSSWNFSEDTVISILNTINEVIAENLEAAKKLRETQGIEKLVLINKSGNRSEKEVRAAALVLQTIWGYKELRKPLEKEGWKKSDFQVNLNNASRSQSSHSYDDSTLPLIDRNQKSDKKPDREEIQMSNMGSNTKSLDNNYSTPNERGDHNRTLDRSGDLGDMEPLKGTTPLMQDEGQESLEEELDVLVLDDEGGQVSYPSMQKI", "test": "cell-based or functional assay"}, "[4]": {"target": "VEGF receptor-2 (VEGFR-2) (human, UniProt P35968 20-1356)", "sequence (P35968 20-1356 limits assumed)": "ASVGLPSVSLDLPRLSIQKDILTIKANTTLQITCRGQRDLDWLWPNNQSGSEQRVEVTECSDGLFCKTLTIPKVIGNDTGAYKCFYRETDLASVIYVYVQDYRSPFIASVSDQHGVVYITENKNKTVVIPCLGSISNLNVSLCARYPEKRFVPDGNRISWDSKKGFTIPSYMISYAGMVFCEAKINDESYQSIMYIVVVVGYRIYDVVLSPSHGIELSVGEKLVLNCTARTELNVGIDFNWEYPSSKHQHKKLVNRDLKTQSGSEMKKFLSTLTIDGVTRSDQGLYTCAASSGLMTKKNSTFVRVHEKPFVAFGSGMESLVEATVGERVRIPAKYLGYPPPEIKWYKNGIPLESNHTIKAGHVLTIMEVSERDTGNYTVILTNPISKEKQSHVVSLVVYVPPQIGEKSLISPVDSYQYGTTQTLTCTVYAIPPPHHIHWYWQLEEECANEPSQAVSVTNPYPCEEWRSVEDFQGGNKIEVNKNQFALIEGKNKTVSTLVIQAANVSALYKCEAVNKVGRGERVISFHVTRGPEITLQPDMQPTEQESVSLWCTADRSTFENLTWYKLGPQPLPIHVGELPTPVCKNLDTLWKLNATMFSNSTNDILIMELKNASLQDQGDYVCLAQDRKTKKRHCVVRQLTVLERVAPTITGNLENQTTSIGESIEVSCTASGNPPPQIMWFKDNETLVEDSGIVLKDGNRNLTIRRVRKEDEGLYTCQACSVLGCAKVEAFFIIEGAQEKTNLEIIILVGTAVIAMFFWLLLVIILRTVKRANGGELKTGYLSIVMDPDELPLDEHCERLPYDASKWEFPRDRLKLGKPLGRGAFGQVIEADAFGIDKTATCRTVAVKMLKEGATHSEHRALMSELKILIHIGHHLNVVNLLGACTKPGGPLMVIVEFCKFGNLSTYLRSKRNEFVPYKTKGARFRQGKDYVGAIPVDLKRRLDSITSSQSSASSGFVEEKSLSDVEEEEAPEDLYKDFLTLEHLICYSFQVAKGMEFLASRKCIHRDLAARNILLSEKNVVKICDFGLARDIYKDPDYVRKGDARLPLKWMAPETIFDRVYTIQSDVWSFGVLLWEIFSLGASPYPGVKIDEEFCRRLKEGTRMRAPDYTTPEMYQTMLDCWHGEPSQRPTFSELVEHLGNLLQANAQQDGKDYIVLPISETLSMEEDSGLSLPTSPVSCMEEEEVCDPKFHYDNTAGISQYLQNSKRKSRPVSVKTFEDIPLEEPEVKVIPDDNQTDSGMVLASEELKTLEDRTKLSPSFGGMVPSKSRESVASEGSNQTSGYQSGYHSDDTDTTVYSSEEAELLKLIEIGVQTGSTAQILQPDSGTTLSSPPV", "test": "co-immunoprecipitation from HUVECs, western blot of identical blots"}, "Tie-2": {"target": "Tie-2 (human, UniProt Q02763 23-1124)", "test": "co-immunoprecipitation from HUVECs, western blot of identical blots"}, "CD36": {"target": "CD36 (human, UniProt P16671 2-472)", "test": "co-immunoprecipitation from HUVECs, western blot of identical blots"}, "PECAM-1": {"target": "PECAM-1 (human, UniProt P16284 28-738)", "test": "co-immunoprecipitation from HUVECs, western blot of identical blots"}, "VE-cadherin": {"target": "T4, VE-cadherin (human, UniProt P33151 48-784)", "T4 sequence (looked up)": "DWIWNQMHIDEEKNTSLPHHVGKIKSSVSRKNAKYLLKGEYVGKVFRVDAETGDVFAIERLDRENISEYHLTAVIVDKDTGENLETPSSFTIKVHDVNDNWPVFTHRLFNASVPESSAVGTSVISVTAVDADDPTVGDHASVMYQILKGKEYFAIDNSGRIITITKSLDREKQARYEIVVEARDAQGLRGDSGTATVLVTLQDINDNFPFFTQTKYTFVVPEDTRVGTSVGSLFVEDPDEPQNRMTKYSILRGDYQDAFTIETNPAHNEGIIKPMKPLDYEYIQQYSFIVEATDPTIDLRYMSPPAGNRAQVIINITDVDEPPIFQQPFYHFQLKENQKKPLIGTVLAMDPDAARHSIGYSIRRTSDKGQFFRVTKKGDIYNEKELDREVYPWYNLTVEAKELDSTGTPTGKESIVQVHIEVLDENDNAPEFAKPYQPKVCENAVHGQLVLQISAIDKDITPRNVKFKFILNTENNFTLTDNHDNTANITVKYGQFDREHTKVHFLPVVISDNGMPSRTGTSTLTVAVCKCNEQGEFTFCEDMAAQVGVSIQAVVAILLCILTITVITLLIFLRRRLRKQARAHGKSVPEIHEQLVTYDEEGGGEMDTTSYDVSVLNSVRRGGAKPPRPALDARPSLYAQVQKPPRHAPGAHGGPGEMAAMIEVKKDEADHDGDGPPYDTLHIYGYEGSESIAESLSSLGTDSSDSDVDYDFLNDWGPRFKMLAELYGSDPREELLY", "test": "co-immunoprecipitation from HUVECs infected with wild-type PAP2b, western blot"}, "β-catenin": {"target": "T5, β-catenin (human, UniProt P35222 2-781)", "T5 sequence (looked up)": "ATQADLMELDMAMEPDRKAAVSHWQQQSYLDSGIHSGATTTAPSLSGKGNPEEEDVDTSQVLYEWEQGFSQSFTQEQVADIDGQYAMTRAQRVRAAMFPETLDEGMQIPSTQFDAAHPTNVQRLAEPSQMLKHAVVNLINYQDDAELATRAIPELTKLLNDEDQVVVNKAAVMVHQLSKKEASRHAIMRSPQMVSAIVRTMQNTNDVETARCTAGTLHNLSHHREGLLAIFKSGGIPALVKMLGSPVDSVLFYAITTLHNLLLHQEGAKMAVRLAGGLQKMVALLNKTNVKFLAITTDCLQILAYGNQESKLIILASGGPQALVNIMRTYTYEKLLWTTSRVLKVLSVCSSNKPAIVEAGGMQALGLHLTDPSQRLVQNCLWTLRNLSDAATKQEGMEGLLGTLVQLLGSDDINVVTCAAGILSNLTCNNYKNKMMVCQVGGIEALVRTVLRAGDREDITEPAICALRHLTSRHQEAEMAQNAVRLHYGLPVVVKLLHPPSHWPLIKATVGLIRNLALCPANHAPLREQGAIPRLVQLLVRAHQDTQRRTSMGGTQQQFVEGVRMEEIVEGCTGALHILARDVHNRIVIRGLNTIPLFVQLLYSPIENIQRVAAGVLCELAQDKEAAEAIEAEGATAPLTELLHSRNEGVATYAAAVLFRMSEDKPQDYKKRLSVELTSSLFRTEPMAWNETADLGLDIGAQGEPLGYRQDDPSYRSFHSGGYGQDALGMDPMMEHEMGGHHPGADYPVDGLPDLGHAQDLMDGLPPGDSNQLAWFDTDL", "test": "co-immunoprecipitation from HUVECs infected with wild-type PAP2b, western blot"}, "γ-catenin (plakoglobin)": {"target": "T6, γ-catenin (plakoglobin) (human, UniProt P14923 1-745)", "T6 sequence (looked up)": "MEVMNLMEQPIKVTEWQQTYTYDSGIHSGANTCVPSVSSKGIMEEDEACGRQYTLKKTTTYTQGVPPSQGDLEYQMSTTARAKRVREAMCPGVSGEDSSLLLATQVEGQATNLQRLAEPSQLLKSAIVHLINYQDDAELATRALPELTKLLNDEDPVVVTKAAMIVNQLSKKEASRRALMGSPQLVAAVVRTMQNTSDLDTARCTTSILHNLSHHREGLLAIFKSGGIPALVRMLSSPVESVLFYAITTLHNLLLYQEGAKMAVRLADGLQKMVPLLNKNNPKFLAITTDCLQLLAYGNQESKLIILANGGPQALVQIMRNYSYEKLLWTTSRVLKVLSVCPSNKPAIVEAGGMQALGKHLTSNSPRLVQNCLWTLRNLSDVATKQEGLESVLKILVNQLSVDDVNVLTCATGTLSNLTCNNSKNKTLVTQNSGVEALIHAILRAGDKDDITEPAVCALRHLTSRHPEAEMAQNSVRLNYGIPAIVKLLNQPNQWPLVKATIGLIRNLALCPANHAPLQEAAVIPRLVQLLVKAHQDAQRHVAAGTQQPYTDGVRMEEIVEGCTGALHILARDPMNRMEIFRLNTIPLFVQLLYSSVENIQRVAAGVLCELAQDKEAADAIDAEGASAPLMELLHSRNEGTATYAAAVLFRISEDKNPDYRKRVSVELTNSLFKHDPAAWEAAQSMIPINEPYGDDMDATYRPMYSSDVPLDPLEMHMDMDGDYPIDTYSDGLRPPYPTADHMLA", "test": "co-immunoprecipitation from HUVECs infected with wild-type PAP2b, western blot"}, "p120catenin [5]": {"target": "T3, p120catenin", "test": "anti-HA co-immunoprecipitation from infected endothelial cells, anti-p120 catenin blot", "procedure": "Endothelial cells were solubilized in RIPA buffer, and immunoprecipitated using indicated antibodies (5 μg/1.5 mg protein). […] All blots shown are representative of those obtained in at least three separate experiments.\nCell extracts were immunoprecipitated with anti-HA (lanes 1, 2, 4, 5 and 6) or anti-p120 catenin (lane 3) monoclonal antibodies (mAb) and subjected to western immunoblot analysis with anti-p120 catenin (FIG. 17A). To determine the level of expression, the bottom portion of the blot was analyzed by immunoblotting with anti-HA mAbs (FIG. 17B)."}}, "note": "Where no end group is shown, it is not given here."}
{"binder": "DIAKVSIGRLRPHFLSVCNPDFSQINCSEGYIQNYRCRGDDSKVQEARKS (other, cysteine pairing not given here; also: recombinant GST fusion, also called GST-RGD-VCIP; recombinant VCIP-RGD; not shown: glutathione S-transferase (GST) encoded by the pGstag vector)", "note": "[GST-VCIP-RGD fusion protein (wild-type glutathione S-transferase-VCIP-RGD)]", "values": [{"measurement": "binding result", "setting": "soluble α2β1 integrin", "result": "no binding (tested: 50-350 ng per well)"}, {"measurement": "binding result", "setting": "soluble αvβ5 integrin", "result": "no binding (tested: 50-350 ng per well)"}, {"measurement": "binding result", "setting": "[1]", "result": "binds"}, {"measurement": "binding result", "setting": "[2]", "result": "binds"}]}
{"binder": "wild-type VCIP/PAP2b, HA-tagged, expressed from pLNCX2-VCIP-RGD (other, Expressed in HEK293, SW480 and HUVEC cells; also called VCIP-RGD (WT); pLNCX2-PAP2b-RGD) YPYDVPDYAYPYDVPDYAYPYDVPDYAMQNYKYDKAIVPESKNGGSPALNNNPRRSGSKRVLLICLDLFCLFMAGLPFLIIETSTIKPYHRGFYCNDESIKYPLKTGETINDAVLCAVGIVIAILAIITGEFYRIYYLKKSRSTIQNPYVAALYKQVGCFLFGCAISQSFTDIAKVSIGRLRPHFLSVCNPDFSQINCSEGYIQNYRCRGDDSKVQEARKSFFSGHASFSMYTMLYLVLYLQARFTWRGARLLRPLLQFTLIMMAFYTGLSRVSDHKHHPSDVLAGFAQGALVACCIVFFVSDLFKTKTTLSLPAPAIRKEILSPVDIIDRNNHHNMM", "values": [{"measurement": "LEF-1 luciferase (TOPFLASH) activity in SW480 cells, fold reduction, construct B", "setting": "p120catenin [3]", "result": "~3.2", "unit": "fold"}, {"measurement": "binding result", "setting": "[4]", "result": "no binding"}, {"measurement": "binding result", "setting": "Tie-2", "result": "no binding"}, {"measurement": "binding result", "setting": "CD36", "result": "no binding"}, {"measurement": "binding result", "setting": "PECAM-1", "result": "no binding"}, {"measurement": "binding result", "setting": "VE-cadherin", "result": "no binding"}, {"measurement": "binding result", "setting": "β-catenin", "result": "no binding"}, {"measurement": "binding result", "setting": "γ-catenin (plakoglobin)", "result": "no binding"}]}
{"binder": "mutant VCIP/PAP2b-RGE, HA-tagged, expressed from pLNCX2-VCIP-RGE (other) YPYDVPDYAYPYDVPDYAYPYDVPDYAMQNYKYDKAIVPESKNGGSPALNNNPRRSGSKRVLLICLDLFCLFMAGLPFLIIETSTIKPYHRGFYCNDESIKYPLKTGETINDAVLCAVGIVIAILAIITGEFYRIYYLKKSRSTIQNPYVAALYKQVGCFLFGCAISQSFTDIAKVSIGRLRPHFLSVCNPDFSQINCSEGYIQNYRCRGEDSKVQEARKSFFSGHASFSMYTMLYLVLYLQARFTWRGARLLRPLLQFTLIMMAFYTGLSRVSDHKHHPSDVLAGFAQGALVACCIVFFVSDLFKTKTTLSLPAPAIRKEILSPVDIIDRNNHHNMM", "values": [{"measurement": "LEF-1 luciferase (TOPFLASH) activity in SW480 cells, fold reduction, construct C", "setting": "p120catenin [3]", "result": "~4.2", "unit": "fold"}]}
{"binder": "PAP2b/VCIP retroviral construct E, lacking the entire C-terminal cytoplasmic segment (other, not shown: small tags and cut ends, residues 1-283 follow from that; Expressed in endothelial cells, lysate used; also called Δ-C-Cyto-284-311; VCIP-Δ-C-cyto) MQNYKYDKAIVPESKNGGSPALNNNPRRSGSKRVLLICLDLFCLFMAGLPFLIIETSTIKPYHRGFYCNDESIKYPLKTGETINDAVLCAVGIVIAILAIITGEFYRIYYLKKSRSTIQNPYVAALYKQVGCFLFGCAISQSFTDIAKVSIGRLRPHFLSVCNPDFSQINCSEGYIQNYRCRGDDSKVQEARKSFFSGHASFSMYTMLYLVLYLQARFTWRGARLLRPLLQFTLIMMAFYTGLSRVSDHKHHPSDVLAGFAQGALVACCIVFFVSDLFKTKTT", "values": [{"measurement": "binding result", "setting": "p120catenin [5]", "result": "no binding"}]}
